Experimental data reported in the supplement of paper PMC10567573.
± gives the standard deviation.

Assay: protein stability index of a GFP-peptide fusion (GPS, HEK-293T) (PSI 1-6); higher = more stable
[1] = treatment: DMSO, c terminus: a fixed tail appended
[2] = treatment: MLN4924 1 uM, 8 h, c terminus: a fixed tail appended
[3] = treatment: DMSO, c terminus: native
[4] = treatment: MLN4924 1 uM, 8 h, c terminus: native
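Further: 24-mer peptide tiles fused after GFP, lentivirally expressed, FACS-sorted into six equal bins by GFP/DsRed ratio, decoded by Illumina sequencing, PSI is the read-weighted mean bin number.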

Sequence	protein stability index [1]	protein stability index [2]	protein stability index [3]	protein stability index [4]
GYEKRNLARVPKLDLKRQYDRVAQ [CHGB]	3.37 ± 0.55	3.11 ± 0.29	–	–
GYRCFVCPVEYNNDTNSFTVDCEP [CDS2]	2.35 ± 0.47	2.58 ± 0.51	–	–
HDCAESGSLDIMKMLLMYCAKMEK [FEM1C]	2.16 ± 0.3	2.13 ± 0.22	–	–
HDEDIKTTNVKSASRQKTSLGIEL [ZNF396]	4.5 ± 0.27	4.58 ± 0.14	–	–
HDESPGNNVVDISVPPTTDGQKPN [RAB11B]	5.46 ± 0.3	5.57 ± 0.12	–	–
HDGKNQPGVAYPAFLGPDEAFALP [SPSB4]	4.12 ± 0.3	4.06 ± 0.21	–	–
HDPLWRRHCKKYWLISEEEKTQKN [FBXO3]	3.56 ± 0.45	3.99 ± 0.34	–	–
HECVNMEESYYCRCHRGYTLDPNG [MATN2]	3.44 ± 0.67	3.36 ± 0.52	–	–
HENAVQGSAVEVQTYQPPWKALSE [ISL2]	4.15 ± 0.23	4.02 ± 0.17	–	–
HFDATNLHKQTASDLLDEKEIAKN [FEM1C]	5.38 ± 0.15	5.31 ± 0.29	–	–
HFGWYLGWGDCVWLPYLYTLQGLY [DHCR7]	3.09 ± 0.84	3.29 ± 0.11	–	–
HFPASPFWSVMFFLMLINLGLGSM [SLC6A17]	3.67 ± 0.42	3.4 ± 0.25	–	–
HFQEAIDFIDCVREKGGKVLVHCE [DUSP5]	2.76 ± 0.39	2.76 ± 0.53	–	–
HFWQLFNALTLFNLAQDPQCKEWQ [TMEM120A]	3.17 ± 0.61	3.72 ± 0.76	–	–
HGLLGSPVRAAASSPVTTLTQTMH [CDC25B]	3.7 ± 0.21	3.79 ± 0.17	–	–
HGPQLPTGIEGNWGRLLEQVGTMA [ZBED2]	3 ± 0.35	3.08 ± 0.24	–	–
HGWLRPEMRTKEQILELLVLEQFL [ZNF263]	2.46 ± 0.47	2.61 ± 0.43	–	–
HIFGDLDSYIPLHEDLLTRIGEAT [NET1]	2.96 ± 0.14	2.93 ± 0.17	–	–
HIKLHSGEKPFKCHLCNYACRRRD [IKZF1]	2.55 ± 0.23	2.93 ± 0.61	–	–
HIRHLGWNPDARYSEHFLQEAKLL [GLT8D2]	2.49 ± 0.17	2.79 ± 0.4	–	–
HLEGYHGTAGDSMSYHSGSVFSAR [TNXB]	3.16 ± 0.43	3.47 ± 0.44	–	–
HQPVVRQCGPQTGLQSPGTLQPPE [TBX5]	4.41 ± 0.27	4.63 ± 0.12	–	–

Sequence	protein stability index [1]	protein stability index [2]	protein stability index [3]	protein stability index [4]
HRIWMYNCHIGGSFSEETEKKFEH [LOXL2]	2.42 ± 0.21	2.62 ± 0.34	–	–
HRWQVDLQLGDGGGCTVGVAGEGV [TRIM15]	3.5 ± 0.27	3.38 ± 0.43	–	–
HSFQSSHRPSLNSVSLQINCQSVA [DLC1]	2.95 ± 0.29	2.98 ± 0.28	–	–
HTLNNLVEKLLREEAEGARWTSYR [TRIM35]	2.48 ± 0.2	2.57 ± 0.19	–	–
HTRSITSCCFDPDSQRVASVSLDR [WDR88]	3.53 ± 0.4	3.44 ± 0.39	–	–
IAMTSGTVQPKQDAFANFANFSK [CLINT1]	–	–	4.22 ± 0.22	4.17 ± 0.31
IANPNSLNHVKSMWYPEIKHFCPR [RHOBTB1]	2.22 ± 0.13	2.4 ± 0.26	–	–
IASFIRGPNPSKLIQQFLTLRPDQ [CDS2]	2.24 ± 0.17	2.33 ± 0.22	–	–
IDHYVGIARDQTKSIVEKIQAKLP [RTN3]	3.05 ± 0.074	3.22 ± 0.39	–	–
IELQGVPNDEVHPLLGVKGDGKSK [RBBP5]	5.14 ± 0.19	4.96 ± 0.21	–	–
IFFDDLDSPSKEEVFRFVQSCARA [CPOX]	2.45 ± 0.38	2.69 ± 0.65	–	–
IGTPPSVLKRQRKRRVALSPVTEN [MYBL2]	4.22 ± 0.56	4.49 ± 0.14	–	–
IIGDYFSDQDPRVRTAAIKAMLQL [INTS4]	2.19 ± 0.28	2.33 ± 0.2	–	–
IIQFVESGDDKNSNYFSMDSMEGK [TRIM29]	3.46 ± 0.24	3.71 ± 0.29	–	–
IIVTIMASQSLGSPMYFFLASLSF [OR4A15]	3.29 ± 0.57	3.13 ± 0.2	–	–
IKQKLGMNLMNELKQNFSKSWHDM [TPD52L1]	2.09 ± 0.2	1.98 ± 0.35	–	–
ILHGTRGELLLDVAWHPVRPIIAS [RBBP5]	2.51 ± 0.33	2.52 ± 0.25	–	–
ILKRRSDEALERCQILELLNAELE [CCDC89]	2.68 ± 0.34	3 ± 0.42	–	–
ILKRRYYRQHCTLELGSYIKDLSV [CTDNEP1]	2.46 ± 0.56	2.25 ± 0.66	–	–
ILTEETEVKGTLEGDVCGVEPPGP [PBXIP1]	5.14 ± 0.39	5.42 ± 0.24	–	–
IMLLDKNVPNPRIKLIDFGIAHKI [DAPK3]	2.89 ± 0.73	2.52 ± 0.46	–	–
INQEELRALEEVEMKLQKNFLTQR [C10orf62]	3.66 ± 0.39	3.83 ± 0.34	–	–

Sequence	protein stability index [1]	protein stability index [2]	protein stability index [3]	protein stability index [4]
IPQLEDVSNFLKERTGFSIRPVAG [TPH1]	2.98 ± 0.34	2.98 ± 0.14	–	–
IPRGFPTIDMGPQLKVVERTRTAT [PTPRD]	3.92 ± 0.24	3.68 ± 0.37	–	–
IPVFRLARRRKKILFYCHFPDLLL [ALG2]	2.88 ± 0.57	2.44 ± 0.29	–	–
IRHQRIHTGEKPYTCHECGDSFSH [ZNF263]	2.62 ± 0.4	2.7 ± 0.36	–	–
IRLYGLQAGRLLWEQELYSQLVYS [WAS]	3.11 ± 0.55	2.7 ± 0.38	–	–
ISAEGFTDIDIDTLCAVLERDTLS [BTBD1]	2.48 ± 0.3	2.63 ± 0.38	–	–
ISESMAACTRSLLGDPPPLLTLPR [HDAC6]	2.98 ± 0.14	3.29 ± 0.41	–	–
ISEYEKSLQFDEKCLSIMLAEWEA [RPAIN]	2.34 ± 0.3	2.87 ± 0.33	–	–
ISNVCEEYIVKKLSRQEFLGMVGL [SLC35F2]	2.32 ± 0.17	2.35 ± 0.13	–	–
ITYPMLFKLTNKNSDRMTHCGVLE [UFD1]	2.46 ± 0.17	2.43 ± 0.23	–	–
IVEDPQTKCEYMLNSMPKRLCLVC [ESRRG]	2.39 ± 0.46	2.05 ± 0.24	–	–
IYCGAGVQKDHENYMKILLKVGGI [PCMTD1]	2.26 ± 0.17	2.25 ± 0.44	–	–
IYGMEGIPEKDMDERRRLLEQKTQ [ZNF207]	4.6 ± 0.17	4.69 ± 0.15	–	–
IYRKYRKLIESELSYFVIVYSVM [FBXO39]	–	–	2.87 ± 0.62	2.89 ± 0.44
KAAVSHWQQQSYLDSGIHSGATTT [CTNNB1]	3.69 ± 0.2	3.78 ± 0.17	–	–
KATAAFSNVGTAISKKFGDMSYSI [TPD52L1]	2.72 ± 0.14	2.72 ± 0.13	–	–
KCLYYLYATLDLNAVKYVSNIKFC [PDS5B]	3.06 ± 0.41	2.75 ± 0.78	–	–
KDARQWFAELSVDMEKILEIIRVI [CCNC]	2.24 ± 0.38	2.15 ± 0.35	–	–
KEDAKGKSEEELAECFRIFDRNAD [TNNC2]	5.54 ± 0.24	5.71 ± 0.12	–	–
KEIAKNLIQPINHTTLQCLAARVI [FEM1C]	2.33 ± 0.5	2.33 ± 0.47	–	–
KESGQEGVDSMAEEGTSDSNTGSE [SMARCE1]	5.01 ± 0.61	–	–	–
